Data taken from IntAct's records for PubMed 18055455.

B1: Mothers against decapentaplegic homolog 3 (Rattus norvegicus (Rat)), P84025 (parent)
chain: MSSILPFTPPIVKRLLGWKKGEQNGQEEKWCEKAVKSLVKKLKKTGQLDELEKAITTQNVNTKCITIPRSLDGRLQVSHRKGLPHVIYCRLWRWPDLHSHHELRAMELCEFAFNMKKDEVCVNPYHYQRVETPVLPPVLVPRHTEIPAEFPPLDDYSHSIPENTNFPAGIEPQSNIPETPPPGYLSEDGETSDHQMNHSMDAGSPNLSPNPMSPAHNNLDLQPVTYCEPAFWCSISYYELNQRVGETFHASQPSMTVDGFTDPSNSERFCLGLLSNVNRNAAVELTRRHIGRGVRLYYIGGEVFAECLSDSAIFVQSPNCNQRYGWHPATVCKIPPGCNLKIFNNQEFAALLAQSVNQGFEAVYQLTRMCTIRMSFVKGWGAEYRRQTVTSTPCWIELHLNGPLQWLDKVLTQMGSPSIRCSSVS

Variants of: B1
Conditions: with ncap_sars N

Row | Variant | effect of a mutation on the interaction
1 | S423D;S425D | with no effect
2 | S422A;S423A;S425A | with no effect
